# From the NTF2 design screens of Basanta et al. (2020)
# Assay: protease stability score; higher = more stable; yeast display proteolysis, trypsin and chymotrypsin;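 further: relative to predicted unfolded state with 0 unfolded-like and 1 meaning tenfold more protease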
row,Sequence,protease stability score
1,DEDEEKKDEARRLWEENLMTGDEETLFRLADPHVRTVINGVEFHGREEMLKAIRWLRHDLGAKHIDSIHIDSVTIQGDFVIVHGHLRFSIGDKRTDSEVHLHVLKVDGKWYVHEVNIN,-0.183
2,DEDEEKLKEFRDVLLHAISTGDEETIKTLVDPHVRIEIDGKERHGRDKVTKLFRDLGVDHVRLTEVSIIGDKLHLDLRLRYGDKERTMIWIISKINGRWLIHTVETH,1.15
3,DEDEEKVEHISKEYFRSFVTGDEDKLRKLLDPNARVYFNGQTVIGRELATKIVLELRNRQVEVDHLHIEYQGDKARLHQITTIDGHINGRDEWFEFHIEVHLRKVNGKWVIQRSEFEIR,0.252
4,DEDEELAKHAIKHWLEALETGDEKRLKELIDPNTRLIVNGQEFHGMESVSKKLIEEIERIPNVTLELHDVRIYNGRVNTDVTVRYNGRTITLHLIILKVNGKWIMESIQLH,1.78
5,DEDEELAKKAVEEFFTAWETGNEERLEELMDPNVRSHINGVDLHGMERTSEYIRRLGHTKVETYLRRVRVFENRVEVDGDIIVDGRKHKFHLDMRKINGRWFIHRVSVK,2.42
6,DEDEELAKKFIEEWHESVLTGDEDSLRKLADPNMKVNVDGRHMVGWEYYKHLLERIDHLTSIEIKRLRVIDGVIDTDVRMDITFDGKRHLLETQLIVLKVNGRWHLRSISMK,1.36
7,DEDEELALKMLEQWLRDLLTGDEETMVDLLDPNARLEIGDKENHGRDEVRKFWEELKKRFKNVRMEIEVHEIRVIGNKVHSINTLIIIIGDKRIKHHIHVHVVIFNGRVHSVHISIH,1.35
8,DEDEELARKFIKKTSEARETGNEDDFMNLADPNVRQDINGVPIIGREEVSRIISHLRIRMEIRIRDVRIVGEKVELDVHIRMDIDFDGQRIHDKRDVHIILVKIDGKWLLHSVNHR,0.536
9,DEDEELARKVLKVWNQAVQTGDEEVLHKLFDPNVQLVQGDKQLHGMESLVRFLRRYDVVRHVDSDVERIHVQGDKIRVTIRLIVDMEINGKRVRTELTIHFIIEKIDGRWVLRELHFE,0.964
10,DEDEELARQIWELFVRAEETGDEELLEKLIDPHTRLHIGDKVFHGRDAIKHIRKRVDHVKRVHVESIRVFDGRVEIHSRQRWEINGVEVEQKFRFTMQKINGRWIMHDMSIL,1.79
11,DEDEELARRHLKRLMEIWNTGDEDSHRHLADPHMRYIYNGKQTHGRQVSAKILLEMRIDHLEIKRMHLVDGKLEIDGRMEGEVNGRKDTVEVIIHNEKVNGRWIIRELQFG,0.503
12,DEDEELDRKFTTLFLHLWETGDEDTMRDLLDPDVRLLIIYNGRHIEVHGREHMSKFLKDFWRKFKNLRIHVKHVEAIDGVVHISGETRFDGRSTLVQIDIDVVDGRIKSERYIFR,1.76
13,DEDEELIEKLLRLEEFAHKTGDERIMEELADPNTRLDINGRREHGMESFIRWLREARYTHFIWRDKIEIGEKMEIQGEVEGTYNGVRHRTEVILFVEKINGRWIIKEIEVR,1.76
14,DEDEELLREFFELLVEAELTGDEKEITRFADPNVILFQGEKEFHGRDFLIRLIMEIRIHHHELERFHLDVFNGRAEIHVDNRRDGWFDGKRIHTKVDLHIHSEKIDGRWLLKNINEILR,0.716
15,DEDEELLRRRADLFLKAYITGDENLLKRLADPDVLFDVNGRVFHGREHFITWLHRQLREFKNMRIHIRDIKHEVQGNFLHSEVDVTININGKEHWFILILIASKVDGKWIVEQIEIRFE,1.48
16,DEDEELMRRVVEIYIRALHTGDEDWMTHLADPHVKVDLLIDGRETELHGREWVVEIARKLGVKHSEVKDVHLVGDYIVIHLHLRIGDKEEEQDLIFLKVDGKWTLESSTIRRI,1.53
17,DEDEELRRRRSEIVRKDWETGDWKSIEELADPHVKNHIGEYLAVGRENLVFVLEHFLKVLGVKHREIHSSELHIVNGRAEVHIDTRLVVNGRNIKTHVRFIFDKVNGRWVMHSVEFHVD,1.25
18,DEDEELSERATREFIENWKTGNFDDLMKLLDPNVKLDVGDKRHHGRERMVRSMVEILKHLGANVIDIHDTDVYDGRIDIHLRLEAENHHSILTIHIEKINGRWLIRSMEIK,1.26
19,DEDEELSERVTREWLHAILTGDEDWLRRYVDPHVRVHINVDGKDRTVHGMDFLIEHLRRVPNVRFIIKHMEVETQGEKVIIRVNVRIRVGDKEHETEIILIVLKVDGRWIATSIFIHIR,0.231
20,DEDEELTRQIIEHIERNIETGDERRYRELVDPNARVDYNGVDKHGMHAILEVWNHIQHEFRGATIEHSRVRDWRFQGDKVILNFEHYFRIGDKNWRLDTRIIVDKVDGRWVIREVQIR,1.47
21,DEDEELVETHIRHEIRSAKTGDEESLHRLLDPNTRIEIGDKVFVGRETFTKWLRKLLHDAGVSKFEVHVRDMEIQGEKLILDGEWHINGVTIRTRIIVHKVNGRWHNKHMQME,0.582
22,DEDEELVKEWFEILMHKVITGDEDTLRNLADPNVRVDINGRDHHGREKFIEVYRRLWEDFGIDYIDSDVEEMKVYDGQAEVTIRLEIRFNGRTLELTTHYDVEKVDGKWRLRRHEVR,1.29
23,DEDEELVKKFFKEHSESNRTGDWHTIMKQADPNARIFINGVILHGRELFTEHMMRMVRRADHFHFHLEDMRVINGRAELDVHVHLNINGKIDNVETHFIVIKINGRWRLEESRFH,0.661
24,DEDEELVRHAYEDWLHTVRTGDEHTLNKLFDPHVRMHYDGVESHGWRIAHHFHRRFKNMQVRIDDEHIEVYGEFARVESKITLDVGEYKIDLTLIVIMIKVNGRWKIHSVRIEKR,1.17
25,DEDEELYEKFTRDLNHSLMTGDEEVMRELADPHVKVDFNGRELHGWEAVTFLLRVMGIDHLELKDIRLQGDKARNYTILRFNGRTSTLIVVLHKVNGKWIIESFEYR,1.07
